Changes are numbered by the printed parent chain.
B1: mAb10920 (antibody, V domains shown)
VH: QVQLVESGGGVVQPGRSLRLSCAASGFTFSYYGMHWVRQAPGKGLEWVAVIWYDGSNKFYADSVKGRFTISRDNSKNTLYLQMNSLRAEDTAVYYCAAARPGYYYGMDVWGQGTTVTVSS
VL: DIQMTQSPSSLSASVGDRVTITCRASQGISNYLAWFQQKPGKAPNSLIYAASSLQRGVPSKFSGSGSGTDFTLTISSLQPEDFATYYCQQYNSYPRTFGQGTKVEIKR
B2: mAb10932 (antibody, V domains shown)
VH: EVQLVESGGGLVQSGGSLRLSCAASGLTVSSNYMSWVRQAPGKGLEWVSVIYSGGSTFYSDSVKGRFTISRHNSKNTLYLQMNSLRAEDTAVYYCARARGDAFDIWGQGTMVTVSS
VL: not shown
B3: mAb10984 (antibody, V domains shown)
VH: EVQLVESGGGLVQPGGSLRLSCAASGLTVNRNYMSWVRQAPGKGLEWVSLIYSGGSTYYADSVKGRFTISRDNSKNTLYLQMNSLRLEDTAVYYCARGELGIPYGMDVWGQGTTVTVSS
VL: QSVLTQPPSVSAAPGQKVTISCSGSSSNIGNNYVSWYQQLPGTAPKLLIYDNNKRPSGIPDRFSGSKSGTSATLGITGLQTGDEADYYCGTWDSSLSAGVFGGGTKLTVLG
B4: mAb10913 (antibody, V domains shown)
VH: EVQLVESGGGLVQPGGSLRLSCAASGFTFRNYEMNWVRQAPGKGLEWVSYITSSGSTMYYADSVKGRFTISRDNAKNSLYLQMNSLRAEDTAVYYCARDGFYYYYAMDVWGQGTTVTVSS
VL: QSVLTQPPSVSAAPGQKVTISCSGSSSNIGNNYVSWYQQLPGTAPKLLIYDNNKRPSGIPDRFSGSKSGTSATLGITGLQTGDEADYYCGTWDSSLSVGRVFGTGTKVTVLG
B5: mAb10923 (antibody, V domains shown)
VH: QVQLVQSGAEVKKPGASVKVSCKASGYTFINYYIHWVRQAPGQGLEWMGWINPNSGGTNYAQKFQGRVTMTRDTSISTAYMELSRLRSDDTAVYYCAIITIFGVVTWFDPWGQGTLVTVSS
VL: not shown
B6: mAb10930 (antibody, V domains shown)
VH: EVQLVESGGGLVQPGRSLRLSCAASGFTFDDYAMYWVRQAPGKGLEWVSGISWNSGSIGYADSVKGRFTISRDNAKNSLYLQMNSLRAADTALYYCAKDKDWNSRGYYYYGMDVWGQGTTVTVSS
VL: not shown
B7: mAb10937 (antibody, V domains shown)
VH: QITLKESGPTLVKPTQTLTLTCTFSGFSLSTNVVGVGWIRQPPGKALEWLALIYWNDDKRYSPSLKSRLTITKDTSKNQVVLTMTNMDPVDTATYYCAHGPTGDYFDYWGQGTLVTVSS
VL: not shown
B8: mAb10936 (antibody, V domains shown)
VH: QVQLVESGGGVVQPGRSLRLSCAASGFTFRNYGMHWVRQAPGKGLEWVSVIWYDGSNRYYADSVKGRFTISRDTSKNTLYLQMNSLRAEDTAVYYCARDPPITGTTGGDAFDIWGQGTMVTVSS
VL: not shown
B9: mAb10982 (antibody, V domains shown)
VH: EVQLVESGGGLVQPGGSLRLSCAASGLTVSSNYMSWVRQAPGKGLEWVSVIYSGGTTYYADSVKGRFTISRHNSKNTLSLQMNSLRAEDTAVYYCARGEGANYYGMDVWGQGTTVTVSS
VL: QSVLTQPPSVSGAPGQRVTISCTGSSSNIGTGYDVHWYQQLPGTAPKLLIYGNSNRPSGVPDRFSGSKSGTSASLAITGLQAEDEADYYCQSYDSSLSGYVVFGGGTKLTVLG
B10: mAb10985 (antibody, V domains shown)
VH: EVQLVESGGGLVQPGRSLRLSCAASGFTFDDYAMHWVRQAPGKGLEWVSGISWNRGSIGYADSVKGRFTISRDNAKNSLYLQMSSLRAEDTALYYCAKDGERWDSVVVPSARNGMDVWGQGTTVTVSS
VL: B9 VL with T31A, Y100S, V101Y, G105T, L109V
B11: mAb10986 (antibody, V domains shown)
VH: EVQLVESGGGLVQPGGSLRLSCAASEFTVSSNYMSWVRQAPGKGLEWVSVIYSGGSTFYADSVKGRFTISRDNSKNTLYLQMNSLRAEDTAVYYCARALPYGDLHFDYWGQGTLVTVSS
VL: B9 VL with S54T, G99D, Y100S, V101Y, G105T, L109V
B12: mAb10939 (antibody, V domains shown)
VH: EVQLVESGGGLVQPGGSLRLSCAASGLTVSSNYMNWVRQVPGKGLEWVSVIYSGGSKFYVDSVKGRFTISRHNSKNTLYLQMNSLRPEDTAVYYCTRDAQYYGMDVWGQGTTVTVSS
VL: DIQMTQSPSSLSASVGDRVTITCRASQSISTYLHWYQQKPGEAPKLLIYAASSLQSGVPSRFSGSGSGTDFTLTISSLQPEDFATYYCQQSYSTPPEIFGQGTKLEIKR
B13: mAb10921 (antibody, V domains shown)
VH: EVQLVESGGGLVQPGGSLRLSCAASGITVSSNYMSWVRQAPGKGLEWVSVIYSGGSTFYADSVKGRFTISRHNSKNTLYLQMNSLRAEDTAVYYCARERNFDAFDIWGQGTMVTVSS
VL: DIQMTQSPSSVSASVGDRVTITCRASQGISSWLAWYQQKPGKAPKLLIYAASSLQSGVPSRFSGSGSGTDFTLTISSLQPEDFATYYCQQANSFPLFTFGPGTKVDIKR
B14: mAb10989 (antibody, V domains shown)
VH: QVQLVQSGAEVKKPGASVKVSCKASGYIFTGYYMHWVRQAPGQGLEWMGWINPNSGGANYAQKFQGRVTLTRDTSITTVYMELSRLRFDDTAVYYCARGSRYDWNQNNWFDPWGQGTLVTVSS
VL: QSALTQPASVSGSPGQSITISCTGTSSDVGTYNYVSWYQQHPGKAPKLMIFDVSNRPSGVSDRFSGSKSGNTASLTISGLQAEDEADYYCSSFTTSSTVVFGGGTKLTVLG
B15: mAb10934 (antibody, V domains shown)
VH: not shown
VL: DIQMTQSPSSLSASVGDRVTITCQASQDIWNYINWYQQKPGKAPKLLIYDASNLKTGVPSRFSGSGSGTDFTFTISSLQPEDIATYYCQQHDDLPPTFGQGTKVEIKR
B16: mAb10935 (antibody, V domains shown)
VH: EVQLVESGGGLVQPGGSLRLSCAASGFTVSSNYMSWVRQAPGKGLEWVSLIYSGGSTYYADSVKGRFTISRHNSKNTLYLQMNSLRSEDTAVYYCARVPLGDYYYGMDVWGQGTTVTVSS
VL: B15 VL with W30N, N31K, I33L, K55E, H91S, D93N, P96L, Q100G
B17: mAb10938 (antibody, V domains shown)
VH: EVQLVESGGGLVQPGGSLRLSCAVSGFTVSSNYMSWVRQAPGKGLEWVSLIYSGGSTFYADSVKGRFTISRHNSKNTLYLQMNSLRAEDTAVYYCAREGGYSYDYNYWGQGTLVTVSS
VL: B15 VL with W30R, I33L, K55E, S65I, H91Y, D93N, P96I, K103R, V104L

Target: SARS-COV-2 RBD extracellular domain expressed with a C-terminal mouse IgG2a (SARS-CoV-2)

| Binder | Kd [nM] | t½ [h] | koff [s⁻¹] | kon [M⁻¹ s⁻¹] |
| --- | --- | --- | --- | --- |
| B1 | 0.416 | 0.658 |  |  |
| B2 | ≤ 0.0413 | ≥ 19.2 | ≤ 1e-05 | 242000 |
| B3 | ≤ 0.0249 | ≥ 19.2 |  |  |
| B4 | 0.244 | 1.27 | 0.000152 | 623000 |
| B5 | 0.0435 | 6.79 | 2.83e-05 | 651000 |
| B6 | ≤ 0.0431 | ≥ 19.2 | ≤ 1e-05 | 232000 |
| B7 | 0.114 | 2.64 | 7.28e-05 | 639000 |
| B8 | ≤ 0.0153 | ≥ 19.2 | ≤ 1e-05 | 652000 |
| B9 | 0.0544 | 11.4 | 1.69e-05 | 310000 |
| B10 | 0.0117 | 15.2 |  |  |
| B11 | ≤ 0.0158 | ≥ 19.2 |  |  |
| B12 | 0.0387 | 16.7 | 1.15e-05 | 299000 |
| B13 | ≤ 0.0375 | ≥ 19.2 | ≤ 1e-05 |  |
| B14 |  | 2.07 |  |  |
| B15 | 0.0832 | 1.64 |  |  |
| B16 | ≤ 0.0261 | ≥ 19.2 | ≤ 1e-05 | 383000 |
| B17 | ≤ 0.0322 | ≥ 19.2 |  |  |
